Results on 12 molecules are retold here after US20160058881A1, “PRODRUGS WITH PROLONGED ACTION” (INDIANA UNIVERSITY RESEARCH AND TECHNOLOGY CORPORATION, priority 2013, published 2016).

Where two headings read alike, the source gives them in different places. Positions of bridges follow the written chain, without caps; N, C: chain ends. Non-standard residues stand in square brackets, D forms with d. Groups on a side chain read outwards from the residue. No end group written: not given here. *: point of attachment. Docosanoyl = CCCCCCCCCCCCCCCCCCCCCC(=O)*; PhLac = O=C(O)[C@@H](O)Cc1ccccc1; Aib = CC(C)(N)C(=O)O; Sar = CNCC(=O)O

For series [1], the target named is glucagon receptor (UniProt P47871). As to the kind of experiment: cell-based or functional assay.
Chain of glucagon receptor (UniProt P47871) (P47871 26-477 limits assumed): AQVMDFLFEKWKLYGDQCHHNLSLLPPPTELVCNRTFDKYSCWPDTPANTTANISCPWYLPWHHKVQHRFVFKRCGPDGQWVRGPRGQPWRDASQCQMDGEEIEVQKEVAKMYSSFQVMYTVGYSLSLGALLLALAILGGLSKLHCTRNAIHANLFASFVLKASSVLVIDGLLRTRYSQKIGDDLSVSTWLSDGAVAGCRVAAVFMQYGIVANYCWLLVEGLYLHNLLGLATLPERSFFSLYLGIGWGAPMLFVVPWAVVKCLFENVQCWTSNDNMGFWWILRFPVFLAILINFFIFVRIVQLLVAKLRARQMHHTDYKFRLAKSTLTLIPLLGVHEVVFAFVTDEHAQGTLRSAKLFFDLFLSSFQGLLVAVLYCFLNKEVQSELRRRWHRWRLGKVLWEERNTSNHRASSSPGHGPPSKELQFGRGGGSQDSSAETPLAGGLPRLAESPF
Series [2] addresses T1, GLP-1 receptor (Homo sapiens, UniProt P43220). The experiment in a line: cell-based or functional assay.
The target in series [3] is glucagon receptor (UniProt P47871). The experiment in a line: cell-based or functional assay. The source holds these as a separate data set.
Series [4] is classed as physicochemical. The following applies: buffer. The method, then:
Preliminary analyses were performed with these crude peptides for an approximation of their relative conversion rates in Phosphate Buffered Saline (PBS) buffer (pH, 7.2) using high performance liquid chromatography (HPLC) and MALDI analysis. The crude peptide samples were dissolved in the PBS buffer at a concentration of 1 mg/mL. […] Aliquots of 100 μL were drawn out at various time intervals, cooled to room temperature and analyzed by HPLC. […] The peptides described above were incubated in PBS buffer or serum at 37° C. for up to 8 days. Samples were collected at different time points for PBS and plasma and half-life was determined. […] The peptides described above were incubated in PBS buffer or serum at 37° C. for up to 8 days. Samples were collected at different time points for PBS and plasma and half-life was determined. […] The shorter half-life seen when the acylated dipeptide was linked to […] might be due to a conformational change that facilitates cleavage when bound to plasma or alternatively to reduced detection of the acylated form when bound to plasma.

The format of series [5] is in vitro ADME. The method, then: The peptides described above were incubated in PBS buffer or serum at 37° C. for up to 8 days. Samples were collected at different time points for PBS and plasma and half-life was determined. […] The peptides described above were incubated in PBS buffer or serum at 37° C. for up to 8 days. Samples were collected at different time points for PBS and plasma and half-life was determined. […] The shorter half-life seen when the acylated dipeptide was linked to […] might be due to a conformational change that facilitates cleavage when bound to plasma or alternatively to reduced detection of the acylated form when bound to plasma.

In series [6] the target is T1, GLP-1 receptor. The experiment in a line: cell-based or functional assay. This is another data set of the same source.
Series [7] concerns the target T2, GLP-1 receptor (UniProt P43220 24-463, limits assumed). The experiment in a line: cell-based or functional assay.
For series [8], the target named is T3, GIP receptor (UniProt P48546 22-466).
T3 sequence (looked up): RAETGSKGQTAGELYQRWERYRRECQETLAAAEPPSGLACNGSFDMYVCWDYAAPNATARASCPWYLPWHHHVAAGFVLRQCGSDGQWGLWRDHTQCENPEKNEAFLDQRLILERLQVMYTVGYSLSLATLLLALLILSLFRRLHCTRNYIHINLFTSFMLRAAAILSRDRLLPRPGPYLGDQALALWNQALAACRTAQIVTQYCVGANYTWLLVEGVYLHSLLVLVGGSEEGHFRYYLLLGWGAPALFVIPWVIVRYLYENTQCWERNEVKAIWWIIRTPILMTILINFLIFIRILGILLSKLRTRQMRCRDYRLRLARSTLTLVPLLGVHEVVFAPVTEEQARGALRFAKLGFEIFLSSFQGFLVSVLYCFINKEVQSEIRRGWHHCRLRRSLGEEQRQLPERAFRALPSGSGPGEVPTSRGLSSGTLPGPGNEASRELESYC
The experiment in a line: cell-based or functional assay.

Series [9] addresses T2, GLP-1 receptor. As to the kind of experiment: cell-based or functional assay. This is another data set of the same source.
Series [10] concerns the target T4, glucagon receptor (UniProt P47871 26-477, limits assumed). The experiment in a line: cell-based or functional assay.
Series [11] has as its target T2, GLP-1 receptor. As to the kind of experiment: cell-based or functional assay. This is another data set of the same source.
The target in series [12] is T4, glucagon receptor. As to the kind of experiment: cell-based or functional assay. This is another data set of the same source.

T4 sequence (P47871 26-477 limits assumed): as the sequence (P47871 26-477 limits assumed) above
T1 sequence (P43220 24-463 limits assumed): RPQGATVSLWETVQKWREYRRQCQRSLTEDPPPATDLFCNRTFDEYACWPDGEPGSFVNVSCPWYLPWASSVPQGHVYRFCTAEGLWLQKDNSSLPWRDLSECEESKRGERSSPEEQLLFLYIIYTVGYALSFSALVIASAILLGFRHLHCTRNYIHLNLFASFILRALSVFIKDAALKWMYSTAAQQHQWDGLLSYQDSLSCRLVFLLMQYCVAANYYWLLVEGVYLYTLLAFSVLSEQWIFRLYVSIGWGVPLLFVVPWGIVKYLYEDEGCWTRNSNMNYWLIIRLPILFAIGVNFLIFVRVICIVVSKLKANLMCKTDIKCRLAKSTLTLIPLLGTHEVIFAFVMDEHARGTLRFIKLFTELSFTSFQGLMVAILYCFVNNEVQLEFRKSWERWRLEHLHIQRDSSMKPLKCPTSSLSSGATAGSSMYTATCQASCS

As to “[PLA6, E9, K12E16(Lactam)] glucagon(6-39) Cex peptide (Table 1 peptide 5)”, the Glu IC50 in series [1] came to 72 nM. The molecule also displayed a GLP-1 EC50 in [2] of 6 nM. This molecule yielded a Glucagon IC50 in series [3] of 72 nM.

What is called half-life is the time needed for the level to fall by half in the phase considered. Lower therefore signals fast loss. For `CCCCCCCCCCCCCCCCCCCCCC(=O)NCCCC[C@@H](N)C(=O)N(C)CC(=O)NCCCC[C@H](NC(=O)[C@H](CO)NC(=O)[C@@H]1CCCN1C(=O)[C@@H]1CCCN1C(=O)[C@@H]1CCCN1C(=O)[C@H](C)NC(=O)CNC(=O)[C@H](CO)NC(=O)[C@H](CO)NC(=O)[C@@H]1CCCN1C(=O)CNC(=O)CNC(=O)[C@H](C)NC(=O)[C@H](CC(C)C)NC(=O)[C@H](CC(C)C)NC(=O)[C@H](Cc1c[nH]c2ccccc12)NC(=O)[C@H](CC(N)=O)NC(=O)[C@@H](NC(=O)[C@H](Cc1ccccc1)NC(=O)[C@H](CCC(=O)O)NC(=O)C(C)(C)NC(=O)[C@H](C)NC(=O)[C@H](C)NC(=O)[C@H](CCC(N)=O)NC(=O)[C@H](CCCCN)NC(=O)[C@H](CC(=O)O)NC(=O)[C@H](CC(C)C)NC(=O)[C@H](Cc1ccc(O)cc1)NC(=O)[C@@H](NC(=O)[C@H](CO)NC(=O)[C@H](Cc1ccc(O)cc1)NC(=O)[C@H](CC(=O)O)NC(=O)[C@H](CO)NC(=O)[C@@H](NC(=O)[C@H](Cc1ccccc1)NC(=O)[C@@H](NC(=O)CNC(=O)[C@H](CCC(=O)O)NC(=O)C(C)(C)NC(=O)[C@@H](N)Cc1ccc(O)cc1)[C@@H](C)O)[C@@H](C)O)[C@@H](C)CC)C(C)C)C(=O)O` [Peptide H], the half-life in series [4] and in series [5] was about 120 h each time.

On to “E9, K12E16(lactam) glucagon(6-39) Cex peptide (Table 1 peptide 2)”, for which, in series [6], the GLP-1 EC50 stood at 63 nM. In [1], this molecule gave a Glu IC50 of 2010 nM. Moreover, the Glucagon IC50 in series [3] was found to be 2010 nM.

On to `CCCCCCCCCCCCCCCCCCCCCC(=O)NCCCC[C@@H](N)C(=O)N(C)CC(=O)NCCCC[C@H](NC(=O)[C@H](CC(=O)O)NC(=O)[C@H](CC(C)C)NC(=O)[C@H](Cc1ccc(O)cc1)NC(=O)[C@@H](NC(=O)[C@H](CO)NC(=O)[C@H](Cc1ccc(O)cc1)NC(=O)[C@H](CC(=O)O)NC(=O)[C@H](CO)NC(=O)[C@@H](NC(=O)[C@H](Cc1ccccc1)NC(=O)[C@@H](NC(=O)CNC(=O)[C@H](CCC(=O)O)NC(=O)C(C)(C)NC(=O)[C@@H](N)Cc1ccc(O)cc1)[C@@H](C)O)[C@@H](C)O)[C@@H](C)CC)C(=O)N[C@@H](CCC(N)=O)C(=O)N[C@@H](C)C(=O)N[C@@H](C)C(=O)NC(C)(C)C(=O)N[C@@H](CCC(=O)O)C(=O)N[C@@H](Cc1ccccc1)C(=O)N[C@H](C(=O)N[C@@H](CC(N)=O)C(=O)N[C@@H](Cc1c[nH]c2ccccc12)C(=O)N[C@@H](CC(C)C)C(=O)N[C@@H](CC(C)C)C(=O)N[C@@H](C)C(=O)NCC(=O)NCC(=O)N1CCC[C@H]1C(=O)N[C@@H](CO)C(=O)N[C@@H](CO)C(=O)NCC(=O)N[C@@H](C)C(=O)N1CCC[C@H]1C(=O)N1CCC[C@H]1C(=O)N1CCC[C@H]1C(=O)N[C@@H](CO)C(=O)O)C(C)C` [Peptide G], for which the half-life in [4] and in series [5] was over 168 h in each case.

In turn, “E9, E16K20(lactam) glucagon(6-39) Cex peptide (Table 1 peptide 3)” showed a Glu IC50 in series [1] of 42 nM. Further, the GLP-1 EC50 in series [2] came out at 36 nM. The Glucagon IC50 in series [3] amounted to 42 nM.

With “D9, K12E16(Lactam) glucagon(6-39) Cex peptide (Table 1 peptide 4)”, the GLP-1 EC50 in series [6] came to 119 nM; in series [2], 18 nM. Further, the Glu IC50 in series [1] came out at 828 nM. This molecule gave a Glucagon IC50 in [3] of 828 nM.

For `CCCCCCCCCCCCCCCCCC(=O)NCCCC[C@@H](N)C(=O)N(C)CC(=O)NCCCC[C@H](NC(=O)[C@H](CC(=O)O)NC(=O)[C@H](CO)NC(=O)[C@@H](NC(=O)[C@H](Cc1ccccc1)NC(=O)[C@@H](NC(=O)CNC(=O)[C@H](CCC(=O)O)NC(=O)C(C)(C)NC(=O)[C@@H](N)Cc1ccccc1)[C@@H](C)O)[C@@H](C)O)C(=O)N[C@@H](CO)C(=O)N[C@H](C(=O)N[C@@H](Cc1ccc(O)cc1)C(=O)N[C@@H](CC(C)C)C(=O)N[C@@H](CC(=O)O)C(=O)N[C@@H](CCCCN)C(=O)N[C@@H](CCC(N)=O)C(=O)N[C@@H](C)C(=O)N[C@@H](C)C(=O)NC(C)(C)C(=O)N[C@@H](CCC(=O)O)C(=O)N[C@@H](Cc1ccccc1)C(=O)N[C@H](C(=O)N[C@@H](CC(N)=O)C(=O)N[C@@H](Cc1c[nH]c2ccccc12)C(=O)N[C@@H](CC(C)C)C(=O)N[C@@H](CC(C)C)C(=O)N[C@@H](C)C(=O)NCC(=O)NCC(=O)N1CCC[C@H]1C(=O)N[C@@H](CO)C(=O)N[C@@H](CO)C(=O)NCC(=O)N[C@@H](C)C(=O)N1CCC[C@H]1C(=O)N1CCC[C@H]1C(=O)N1CCC[C@H]1C(=O)N[C@@H](CO)C(=O)O)C(C)C)[C@@H](C)CC` [Peptide E], the half-life in [4] and in [5] was about 168 h in each case.

B1: Peptide G with C22-acylated (d)Lysine-sarcosine dipeptide on Lysine at position 16 (peptide)
peptide: Y[Aib]EGTFTSDYSIYLDK([Sar-dK-C22 acyl])QAA[Aib]EFVNWLLAGGPSSGAPPPS-NH2
Turning to B1, in series [7], the “EC50-GLP, relative activity to GLP-1 standard” value (“EC50-GLP, relative activity” for short) worked out at 24.7%. Further, the “EC50-GIP, relative activity to GIP standard” value (“EC50-GIP, relative activity” below) in series [8] came out at 58.5%.

B2: Peptide F of Example 8 with C22-acylated (d)Lysine-sarcosine dipeptide on Lysine at position 12 (peptide)
peptide: Y[Aib]EGTFTSDYSK([Sar-dK-C22 acyl])YLDKQAA[Aib]EFVNWLLAGGPSSGAPPPS-NH2
As for B2, the “EC50-GLP, relative activity” value in series [7] was found to be 17.4%. Moreover, the “EC50-GIP, relative activity” value in series [8] turned out to be 30.2%.

B3: [PLA6, D9, K12E16(Lactam), D28]G(6-29) (Table 2 peptide 2) (peptide)
peptide: [PhLac]TSDYSKYLDERRAQDFVQWLMDT
modifications: lactam 7-11; not fully specified
Turning to B3, the “GLP-1 EC50” value in [9] was 177 nM; in series [11], 21 nM. For the same molecule, the “Glucagon IC50” value in series [10] is 63 nM; in series [12], 13 nM.

B4: Peptide H with C22-acylated (d)Lysine-sarcosine dipeptide on Lysine at position 40 (peptide)
peptide: Y[Aib]EGTFTSDYSIYLDKQAA[Aib]EFVNWLLAGGPSSGAPPPSK([Sar-dK-Docosanoyl])-NH2
For B4, the “EC50-GLP, relative activity” value in series [7] was determined as 37.1%. The “EC50-GIP, relative activity” value in series [8] is 81.6%.

B5: [PLA6, D9, E16K20(lactam), D28]G(6-29) (Table 2 peptide 1) (peptide)
peptide: [PhLac]TSDYSKYLDERRAKDFVQWLMDT
modifications: lactam 11-15
With B5, the results for the “Glucagon IC50” value in series [10] and in series [12] were 10 to 30 nM and 6 nM, respectively. In series [11], the “GLP-1 EC50” value turned out to be 4 nM.
